Bridges are numbered along the chain shown (N, C = ends). [ ]: non-standard residue; d: D form. Ahx = NCCCCCC(=O)O; βAla = NCCC(=O)O
B1: [99mTc(N)(NAP-NS1)(PNP3)]+ (peptide)
chain: CXXXDHFRWG
modifications: Ahx at 2, βAla at 3, Nle at 4 (each written X); D-Phe at 7; C-terminal amide; [99mTc(N)(PNP3)] label (PNP3 = N,N-bis(dimethoxypropylphosphinoethyl)methoxyethylamine)
B2: NAP-NS2, lactam bridge-cyclized H-Cys-Ahx-βAla3-c[Lys4-Glu-His-D-Phe-Arg-Trp-Glu10]-Arg11-Pro-Val-NH2 (peptide)
chain: H-C[Ahx][βAla]KEH[dF]RWERPV-NH2
modifications: lactam 4-10
SMILES: CC(C)[C@H](NC(=O)[C@@H]1CCCN1C(=O)[C@H](CCCNC(=N)N)NC(=O)[C@@H]1CCC(=O)NCCCC[C@H](NC(=O)CCNC(=O)CCCCCNC(=O)[C@@H](N)CS)C(=O)N[C@@H](CCC(=O)O)C(=O)N[C@@H](Cc2c[nH]cn2)C(=O)N[C@H](Cc2ccccc2)C(=O)N[C@@H](CCCNC(=N)N)C(=O)N[C@@H](Cc2c[nH]c3ccccc23)C(=O)N1)C(N)=O

Tests used:
MC1R [1] = target: T1, MC1R (mouse (endogenous in B16/F10), UniProt Q01727 1-315); assay: radioligand binding; receptor affinity (Kd) of the 99mTc-labelled peptide; B16/F10 melanoma cells are the only cells named; conditions: one partner purified
T1 construct: also called MCR1R

MC1R [2] = target: T1, MC1R; assay: radioligand binding; MC1R binding affinity (Ki) of the unlabelled peptides determined in B16/F10 melanoma cells; the competing ligand is not named; conditions: one partner purified

T1 sequence (Q01727 whole entry): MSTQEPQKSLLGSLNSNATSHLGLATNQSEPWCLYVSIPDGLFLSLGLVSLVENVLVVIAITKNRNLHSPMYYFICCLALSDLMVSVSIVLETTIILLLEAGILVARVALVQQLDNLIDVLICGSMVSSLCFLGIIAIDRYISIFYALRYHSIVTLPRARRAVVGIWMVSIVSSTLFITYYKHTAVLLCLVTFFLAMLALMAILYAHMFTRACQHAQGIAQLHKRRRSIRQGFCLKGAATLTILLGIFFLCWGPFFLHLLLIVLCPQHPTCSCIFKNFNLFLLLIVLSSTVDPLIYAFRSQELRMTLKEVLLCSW

| Binder | Kd (MC1R [1]) | Ki (MC1R [2]) |
| --- | --- | --- |
| B1 | 7.1 ± 0.5 nM | – |
| CXXXDHFRWG (Ahx at 2, βAla at 3, Nle at 4 (each written X); D-Phe at 7; C-terminal amide) [NAP-NS1, linear H-Cys-Ahx-βAla-Nle-Asp-His-D-Phe-Arg-Trp-Gly-NH2] | – | 0.9 ± 0.3 nM |
| B2 | – | 7.1 ± 2.4 nM |
